# Source: paper PMC3942423 (Nature chemical biology, 2009)
# B1: Bt3991 (Bacteroides thetaiotaomicron VPI-5482) (protein)
# chain: MKLKTLLIGCFGGFIMLNSCTESPSVKDYSAYVNPFIGTGGHGHTFPGAVVPHGMIQPSPDTRIDGWDACSGYYYDDNTINGFSHTHVSGTGCCDYGDVLLMPTVGKPQYLTTDPESQKLAYASAFSHENETAEPGYYSVFLDTYQVKAEITATKRGAIHRYTFPESTESGFIIDLDYSLQRQTNYEMEIEVISDTEICGHKKTTYWAFDQYINFYAKFSKPFAYTLITDSVTMDNGKRLPVCKAVLHFNTKKDEEVLVKVGVSAVDIAGARKNVESEIPEWDFDKVRKDARTAWNNYLSKIDITTSDKEDKTIFYTALYHTAISPNLFTDADGRYLGMDLEVHQGDTINPLYTVFSLWDTFRALHPLMTIIDPNLNNQFINSLIRKHQEGGIYPMWDLASNYTGTMIGYHAVPVIVDAYMKGYRNFDAHEAYKASLRAAEYDTTGIKCPDLVLPHLMPKAKYYKNAIGYIPCDRENESVAKALEYAYDDWCISIFAEAMNDFENKAKYERFAKAYEFYFDKSTRFMRGLDSNGEWRTPFNPRASTHRSDDYCEGTAWQWTWFVPHDVEGLVKLMGGEDAFVEKLDSLFTVDSSLDGETTSADISGLIGQYAHGNEPSHHVIHLYNYVNRPWRTQELVDSVYRSQYANNVDGLSGNEDCGQMSAWYILNSMGFYQVCPGKPVYSIGRPAFDKAVINLPGEKTFSIVAKNNSKSNKYIESVLLNGKPLDTPFFGHQDIVAGGVMEIRMTDHPTQWGVRQ
# B2: Bt4092 (Bacteroides thetaiotaomicron VPI-5482) (protein)
# chain: QLKDLVQYVNTLQGTDSNFGLSYGNTYPTTGMPYGMHMWSAQTGKNGDGFKYMYAVDKIRAFSQSHQCSPWVSDYAVYSFMPMVGELVVNQDARATKFSHDNEIAKPHYYKVTFDNGITTEMAPTTRGVHLRFSYPTTGDAYLVLDGYTDMSEIKIDPAKRQISGWVNNQRFVNDSKSFRNYFVVQFDKPFEDYGVWENQKDEVFPQKLDGAGKGYGAFIKFKKGSKVQAKAASSYISAEQALITLNKELGKDKNLEVTKARGQKTWNEVLNRIVVEGCTDEQMKTFYSCLFRANLFSRKFYERKENGEPYYYSPYNGKIYDGYMYTDNGFWDTFRSQFPLTNILHPTMQGRYMNALLAAQEQCGWLPSWSSPGETGGMLGNHSISLLADAWAKGIRDFDPEKALKAYAHEAMNKGPWGGANGRGFWKEYFQLGYVPYPESMGSSAQTMEYAYDDFCGYQLAKMVGNKHYQEVFARQMYNYKNVFDKSIGFMRGKGVDGKWQEPFDPLEWGGPFCEGNAWHYTWSVFHDVQGLIDLFGSDEKFTTKIDSVFTIPNIIKPGTYGGVIHEMKEMELANMGQYAHGNQPIQHMPYLYCYAGQPWKTQYWVRQIVERLYNSTEKGYPGDEDQGGMSSWYILSSLGIYAVCPGTDEYVIGSPLFKKATITMENGNKFVIEAPENSKENLYIQSATLNGRLLDKNYIHYDDIAEGGVLKFEMGSQPNKERCTSKYAAPFSLSKE
# B3: Bt3963 (Bacteroides thetaiotaomicron VPI-5482) (protein)
# chain: QQPVDYVNPIIGTNGMGHTFPGACTPFGWVQLSPDTDTIPHNVNGAYQKNAYEYCAGYQYRDKTIVGFSHTHLSGTGHSDLGDILLMPAVGDVKLNPGRADHPEEGYRSRFDHATEKATPGYYEVMLDDYGIKAQLTATQRTGVHKYTFPKGKDGHLILDLVHGIYNYDGKVLWANLRVENDTLLTGYRITNGWARTNYTYFAISLSQPIKDYGYKDKEKVLYNGFWRRFKLEKNFPEITGRKIVAYFNFETAKDPELVVKVALSAVSTEGAVKNLRAEASGKSFEQLAEAARTDWNNELDHFEIEGTPDQKAMFYTSLYHTMINPSVYMDVDGSYRGLDHNIHQAKGFTNYTIFSLWDTYRAEHPFLNLVKPERNADMVESMIKHEQQSVHGMLPIWSLMGNENWCMSGYHAVSVLADAITKGVFSNVDEALSAMVSTSTVPYYEGVADYMKLGYIPLDKSGTAASSTLEYAYDDWTIYQTALKAGNKEIADTYRKRALNYRNIYDTSIGFARPRYSDGTFKKEFDVLQTYGEGFIEGNSWNFSFHVPHDVFGMIDLMGGEKTFVQKLDELFSMHLPEKYYEHNEDITEECLVGGYVHGNEPSHHVPYLYAWTSQPWKTQYWLREILNKMYKNDINGLGGNDDCGQMSAWYLFSVMGFYPVCPGTDQYVLGAPYLPYLKLTLPNGKTLEIKAPGVSDKKRYVQSLKLNGESYDKMYITHEDILKGGVLEFKMSASPNKRRGVSVQDKPYSLTNGIN
# B4: Bt3784 (Bacteroides thetaiotaomicron VPI-5482) (protein)
# chain: MKTHFSFKHLLFIGGAVLYSMQISAVKNPVDYVSTLVGTQSKFELSTGNTYPATALPWGMNFWTPQTGKMGDGWAYTYNADKIRGFKQTHQPSPWMNDYGQFSIMPITGGLVFDQDQRASWFSHKAEVAKPYYYKVYLADHDVTTELVPTERAAMFRFTYPETKNAYVVIDAFDKGSYVKVIPEENKIIGYSTKNSGGVPENFKNYFVIQFDKPFTFTSGVKENNILPNETEVQGNHTGAIIGFATQKGEIVHARVASSFISYEQAELNLKELGKDSFDQLVTKGKDIWNREMSKVDVEDDNIDNLRTFYSCLYRSMLFPRSFYEIDAKGQVVHYSPYNGKVLPGYMFTDTGFWDTFRCLFPFLNLMYPSMNQKMQEGLVNAYLESGFLPEWASPGHRDCMVGNNSASVVADAYIKGLRGYDIETLWEALKHDANAHLRGTASGRLAYDAYNKLGYVPNNIGIGQNVARTLEYAYNDWTIYTLGKKLGKPASEIDIFKQRALNYKNVYHPKRKLMVGKDDKGVFNPKFDAVDWSGEFCEGNSWHWSFCVFHDPQGLIDLMGGKKEFNNMMDSVFVIPGKQGMESRGMIHEMREMQVMNMGQYAHGNQPIQHMVYLYNYSGEPWKAQHWVREIMDKLYTAGPDGYCGDEDNGQTSAWYVFSALGFYPVCPGTDQYILGTPLFKSAKLHLENGKTVTIKASNNNTDNRYVKDMKVNGKAFTRNYLTHDQLLKGANIQYQMSPTPNKQRGTTEKDIPYSLSFE
# B5: Bt3130 (Bacteroides thetaiotaomicron VPI-5482) (protein)
# chain: GEITKYVNPFIGTGAIDGGLSGNNYPGATSPFGMIQLSPDTSEAPNWGDASGYDYNRNTIFGFSHTRLSGTGASDLIDITLMPTSSGRTSSAFTHDEEKARPGYYQVMLKDENINAELTTTQRNGIHRYQYPAGKDAEIILDMDHSADKGSWGRRIINSQIRILNDHAVEGYRIITGWAKLRKIYFYMEFSSPILTSTLRDGGRVHENTAVINGTNLHGCFRFGQLNGKPLTCKVALSSVSMENARQNMEQEAPHWDFDRYVAAADADWEKQLGKIEVKGTEVQKEIFYTALYHTMIQPNTMSDVNGEYMAADYTTRKVANNETHYTTFSLWDTFRASHPLYTLLEPERVTDFVKSMIRQYEYYGYLPIWQLWGQDNYCMIGNHSIPVITDAILKGIPGIDMEKAYEAVYNSSVTSHPNSPFEVWEKYGFMPENIQTQSVSITLEQAFDDWCVAQLAAKLNKDADYQRFHKRSEYYRNLFHPKTKFFQSKNDKGEWIEPFDPYQYGGNGGHPFTEGNAWQYFWYVPHNIQALMELTGGTKAFEQKLDTFFTSTYKSEQMNHNASGFVGQYAHGNEPSHHVAYLYNFAGQPWKTQKYVSHILNTLYNNTSSGYAGNDDCGQMSAWYVFSAMGFYPVNPADGRYIIGSPLLDECTLKLAGNKEFRIRTIRKSPEDIYIQSVTLNGKKHKDFFITHQDIMNGGTMVFKMGKKPSGWGK
# B6: Bt1032 (Bacteroides thetaiotaomicron VPI-5482) (protein)
# chain: GEGKAPPMDKEKSLLIDYVDPFIGTTNFGTTNPGAVCPNGMMSVVPFNVMGSADNTYDKDARWWSTPYEHTNCFFTGYSHVNLSGVGCPELGSLLLMPTTGELNVDYKEYGSKYKDEQASPGYYSNYLTKYNIKTEVSATPRTGIARFTFPKGESHILLNLGEGLTNESGAMLRRVSDSEIEGMKLLGTFCYNPQAVFPIYFVMRVNKVPATTGYWKKQRPMTGVEAEWDRDQGKYKLYTRYGKEIAGDDVGAYFTFETEEGEQVEVQMGVSFVSIENARLNLDKEQSGKNFEQVLSDARAQWNDDLSRITVEGGTDAQKTVFYTALYHLLIHPNVLQDVNGEYPAMESDQILTTKGTRYTVFSLWDTYRNVHQLLTLVYPERQMEMVRTMLDMYREHGWFPKWELYGRETLTMEGDPSIPVIVDTWMKGLRDFDVDLAYEAMYKSATLPGAENLMRPDNDDYMSKGYVPLREQYDNSVSHALEYYIADFALSRFADALGKKKDAEMFYKRSLGYKHYYSKEFGTFRPILPDGTFYSPFNPRQGENFEPNPGFHEGNSWNYTFYVPHDVYGLAKLMGGKKPFVNKLQMVFDEGLYDPANEPDIAYAHLFSYFKGEEWRTQKETQRLLDKYFTTKPDGIPGNDDTGTMSAWAIFNMIGFYPDCPGLPEYALTTPVFNKVTIRLDPKWYKENELVIESNRTGSETLYINKVLLDGKKFNKYRITHDELVHGKRLIFDLK
# B7: Bt3994 (Bacteroides thetaiotaomicron VPI-5482) (protein)
# chain: EIDYTSYVNPFIGTDFTGNTYPGAQAPFGMVQLSPDNGLPGWDRISGYFYPDSTIAGFSHTHLSGTGAGDLYDISFMPVTLPYKEAEAPLGIYSKFSHDEESAYAGYYQVRLKDYHINVELTATERCGIQRYTFPKAEAAIFLNLKKAMNWDFTNDSHIEVVDSVTIQGYRYSDGWARDQRIYFRTRFSKPFDKVELDTTAIIKDKQHIGTAVIARFDFHTEEGEQILVNTAISGVSMEGAAKNLQAEVPENDFDKYLAETKANWNRQLGKIEVEGDNQDDKVNFYTALYHSMIAPTIYSDVDGAYYGPDKKVHQSDGWVNYSTFSLWDTYRAAHPLFTYTEPERVNDMVKSFIAFFEQNGRLPVWNFYGSETDMMIGYHAVPVIVDAYLKGIGNFDAEKALAACVATANLDNYRGIGLYKQLGYIPYNVTDHYNAENWSLSKTLEYAFDDYCIAEMANKMGKKEIADEFYKRSQNYKNVYNPATSFMQPRDDKGNFIKDFKADEYTPHICESNGWQYFWSVQHDIDGLIDLTGGKNRFAEKLDSMFTYHPAADEELPIFSTGMIGQYAHGNEPSHHVIYLFNAVGQQNLTQKYVAKVMNELYKNEPAGLCGNEDCGQMSAWYVFSAMGFYPVNPVSGKYEIGTPLFPEMKLHLANGKTFTVLAPKVSKENIYIQSIKVDGQPYNKTYLTHEQIMSGTTVEFEMGNTPLVEVEFEEQTQ
# How the values were obtained:
# [1] = substrate: O=[N+]([O-])c1ccc(O[C@H]2O[C@H](CO)[C@@H](O)[C@H](O)[C@@H]2O)cc1; assay: 4NP-Man hydrolysis kinetics; format: biochemical, Bacteroides thetaiotaomicron; conditions: other: substrate 4NP-Man
# [2] = substrate: OC[C@H]1O[C@H](O[C@H]2[C@@H](O)[C@H](O)[C@@H](CO)O[C@@H]2O)[C@@H](O)[C@@H](O)[C@@H]1O; assay: mannobiose hydrolysis kinetics; format: biochemical, Bacteroides thetaiotaomicron; conditions: other: most active mannobiose substrate
protein,measurement,setting,value
B1,kcat,"[1]; enzyme Bt3991, pH 7.0",0.0025 ± 0.00035 s⁻¹
same,kcat/Km,"[1]; enzyme Bt3991, pH 7.0",0.917 M⁻¹ s⁻¹
B2,Km,"[2]; enzyme Bt4092, pH 7.0",2000 ± 450 µM
same,kcat,"[2]; enzyme Bt4092, pH 7.0",1.83 s⁻¹
same,kcat/Km,"[2]; enzyme Bt4092, pH 7.0",900 M⁻¹ s⁻¹
B3,Km,"[1]; enzyme Bt3963, pH 7.0",790 ± 80 µM
same,kcat,"[1]; enzyme Bt3963, pH 7.0",0.00045 ± 1.67e-05 s⁻¹
same,kcat/Km,"[1]; enzyme Bt3963, pH 7.0",0.567 M⁻¹ s⁻¹
B4,kcat,"[2]; enzyme Bt3784, pH 7.0",0.45 ± 0.0917 s⁻¹
same,kcat/Km,"[2]; enzyme Bt3784, pH 7.0",183 M⁻¹ s⁻¹
same,kcat,"[1]; enzyme Bt3784, pH 7.0",0.08 ± 0.0065 s⁻¹
same,kcat/Km,"[1]; enzyme Bt3784, pH 7.0",11.5 M⁻¹ s⁻¹
B5,Km,"[1]; enzyme Bt3130, pH 7.0",510 ± 97 µM
same,kcat,"[1]; enzyme Bt3130, pH 7.0",56.7 ± 3.17 s⁻¹
same,kcat/Km,"[1]; enzyme Bt3130, pH 7.0",112000 M⁻¹ s⁻¹
B6,Km,"[1]; enzyme Bt1032, pH 7.0",1700 ± 360 µM
same,kcat,"[1]; enzyme Bt1032, pH 7.0",0.006 ± 0.000633 s⁻¹
same,kcat/Km,"[1]; enzyme Bt1032, pH 7.0",3.5 M⁻¹ s⁻¹
B7,Km,"[1]; enzyme Bt3994, pH 7.0",3700 ± 430 µM
same,kcat,"[1]; enzyme Bt3994, pH 7.0",1.57 ± 0.0933 s⁻¹
same,kcat/Km,"[1]; enzyme Bt3994, pH 7.0",433 M⁻¹ s⁻¹
